Test [1] deals with Cedar virus attachment glycoprotein (CedV-G), HA-tagged, expressed on the cell surface (Cedar virus). Kind of test: flow cytometry on cells. (In flow cytometry, cells or beads pass a laser one at a time.)
In test [2] the target is T1, Nipah virus attachment glycoprotein (NiV-G), HA-tagged, expressed on the cell surface (Nipah virus, UniProt Q9IH62 1-602).
T1 construct: also called HNV-G; G of NiVpp
T1 sequence: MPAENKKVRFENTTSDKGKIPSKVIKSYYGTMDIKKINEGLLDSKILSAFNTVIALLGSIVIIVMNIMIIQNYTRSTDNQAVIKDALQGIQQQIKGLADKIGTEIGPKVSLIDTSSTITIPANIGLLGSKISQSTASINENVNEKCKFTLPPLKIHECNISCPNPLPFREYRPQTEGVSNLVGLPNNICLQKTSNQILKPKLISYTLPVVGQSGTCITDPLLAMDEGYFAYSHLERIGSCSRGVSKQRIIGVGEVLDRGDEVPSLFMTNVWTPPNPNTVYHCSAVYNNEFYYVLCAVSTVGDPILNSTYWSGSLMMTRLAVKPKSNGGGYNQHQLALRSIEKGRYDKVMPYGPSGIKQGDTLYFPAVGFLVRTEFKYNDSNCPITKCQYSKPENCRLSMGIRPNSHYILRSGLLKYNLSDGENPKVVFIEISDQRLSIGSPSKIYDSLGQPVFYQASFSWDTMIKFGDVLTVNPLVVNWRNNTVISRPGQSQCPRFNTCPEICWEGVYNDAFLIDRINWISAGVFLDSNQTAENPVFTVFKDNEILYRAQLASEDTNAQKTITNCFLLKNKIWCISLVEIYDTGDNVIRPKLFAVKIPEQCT
Kind of test: flow cytometry on cells. To be noted: one partner purified.

Test [3] addresses T2, Hendra virus attachment glycoprotein (HeV-G), HA-tagged, expressed on the cell surface (Hendra virus, UniProt O89343 1-604).
T2 construct: also called HNV-G; G of HeVpp; not shown: HA, C-terminal, kept
T2 sequence: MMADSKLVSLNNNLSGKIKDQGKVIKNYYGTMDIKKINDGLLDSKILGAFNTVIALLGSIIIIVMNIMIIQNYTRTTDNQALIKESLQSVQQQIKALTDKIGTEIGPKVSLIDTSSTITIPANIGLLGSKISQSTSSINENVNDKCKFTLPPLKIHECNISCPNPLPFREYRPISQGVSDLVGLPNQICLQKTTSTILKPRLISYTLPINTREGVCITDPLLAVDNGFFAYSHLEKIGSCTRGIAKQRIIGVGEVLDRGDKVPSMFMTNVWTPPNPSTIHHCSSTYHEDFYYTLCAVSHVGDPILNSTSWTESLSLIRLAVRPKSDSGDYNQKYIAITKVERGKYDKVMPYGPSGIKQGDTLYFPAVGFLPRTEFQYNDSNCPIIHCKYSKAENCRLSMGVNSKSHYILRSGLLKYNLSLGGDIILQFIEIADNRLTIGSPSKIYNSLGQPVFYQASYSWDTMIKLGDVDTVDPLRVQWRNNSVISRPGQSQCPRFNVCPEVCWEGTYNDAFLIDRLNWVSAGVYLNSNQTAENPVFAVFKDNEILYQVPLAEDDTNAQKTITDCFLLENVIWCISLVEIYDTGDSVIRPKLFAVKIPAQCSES
The test is described as follows: flow cytometry on cells. To be noted: one partner purified.

The target in test [4] is T3, Ghana virus attachment glycoprotein (GhV-G), HA-tagged, expressed on the cell surface (Ghana virus, UniProt I0E093 1-632).
T3 construct: also called Ghanaian bat henipavirus G; HNV-G; not shown: HA, C-terminal, kept
T3 sequence: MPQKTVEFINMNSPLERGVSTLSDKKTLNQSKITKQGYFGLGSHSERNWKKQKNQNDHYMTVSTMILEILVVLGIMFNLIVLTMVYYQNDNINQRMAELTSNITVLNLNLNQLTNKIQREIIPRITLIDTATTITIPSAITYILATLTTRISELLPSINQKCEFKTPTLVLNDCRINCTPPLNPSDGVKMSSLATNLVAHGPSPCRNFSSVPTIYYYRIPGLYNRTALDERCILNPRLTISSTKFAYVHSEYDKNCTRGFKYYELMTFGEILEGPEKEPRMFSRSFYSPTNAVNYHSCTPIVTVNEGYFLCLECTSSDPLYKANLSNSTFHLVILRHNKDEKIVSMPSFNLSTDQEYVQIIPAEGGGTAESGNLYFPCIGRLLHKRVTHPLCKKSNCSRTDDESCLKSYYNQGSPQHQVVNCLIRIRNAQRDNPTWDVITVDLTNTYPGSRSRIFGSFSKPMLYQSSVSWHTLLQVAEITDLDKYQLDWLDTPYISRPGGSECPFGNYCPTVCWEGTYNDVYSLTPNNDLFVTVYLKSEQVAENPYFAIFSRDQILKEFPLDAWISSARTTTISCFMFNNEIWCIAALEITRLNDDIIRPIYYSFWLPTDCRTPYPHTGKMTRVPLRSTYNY
The test is described as follows: flow cytometry on cells. To be noted: one partner purified.

The target in test [5] is T4, CedV-G receptor-binding six-bladed β-propeller domain (residues 209–622) (Cedar virus, UniProt J7H333 209-622, high-mannose N-linked glycans (expression in the presence of kifunensine)).
T4 sequence: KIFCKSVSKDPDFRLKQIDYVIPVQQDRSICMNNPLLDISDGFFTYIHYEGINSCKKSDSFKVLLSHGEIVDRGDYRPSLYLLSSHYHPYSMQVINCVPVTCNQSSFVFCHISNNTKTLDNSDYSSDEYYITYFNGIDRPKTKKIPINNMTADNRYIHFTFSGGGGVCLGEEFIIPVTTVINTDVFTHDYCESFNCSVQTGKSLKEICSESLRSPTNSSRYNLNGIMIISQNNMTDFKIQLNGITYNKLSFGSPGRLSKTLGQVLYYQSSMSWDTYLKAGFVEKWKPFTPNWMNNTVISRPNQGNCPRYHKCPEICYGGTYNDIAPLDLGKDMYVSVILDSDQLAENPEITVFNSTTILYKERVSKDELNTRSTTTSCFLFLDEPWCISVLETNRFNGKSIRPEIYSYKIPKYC
The test is described as follows: crystal structure. The note with it: both partners purified.

In turn, “Soluble human ephrin-B2–Fc (from UniProt P52799) (Fc fusion)” gave a Kd in test [1] of 2.3 nM. That is a single-digit nanomolar value.

In test [1], “Soluble human ephrin-B1–Fc (from UniProt P98172) (Fc fusion)” returned an equilibrium dissociation constant (Kd) of 4 nM.

B1: Soluble human ephrin-B3–Fc (Fc fusion)
chain: LSLEPVYWNSANKRFQAEGGYVLYPQIGDRLDLLCPRARPPGPHSSPNYEFYKLYLVGGAQGRRCEAPPAPNLLLTCDRPDLDLRFTIKFQEYSPNLWGHEFRSHHDYYIIATSDGTREGLESLQGGVCLTRGMKVLLRVGQSPRGGAVPRKPVSEMPMERDRGAAHSLEPGKENLPGDPTSNATSRGAEGPLPPPSMP
notes: also called sEphrin-B3–Fc; ephrin-B–Fc; source: bought: R&D Systems
For the molecule B1, the dissociation constant (Kd) in test [2] came to 2 nM; in test [3], 5.3 nM.

B2: Soluble human ephrin-B2–Fc (Fc fusion)
chain: IVLEPIYWNSSNSKFLPGQGLVLYPQIGDKLDIICPKVDSKTVGQYEYYKVYMVDKDQADRCTIKKENTPLLNCAKPDQDIKFTIKFQEFSPNLWGLEFQKNKDYYIISTSNGSLEGLDNQEGGVCQTRAMKILMKVGQDASSAGSTRNKDPTRRPELEAGTNGRSSTTSPFVKPNPGSSTDGNSAGHSGNNILGSEVALFA
notes: also called sEphrin-B2–Fc; ephrin-B–Fc; source: bought: R&D Systems
With B2, the equilibrium dissociation constant (Kd) in test [2] turned out to be 1.4 nM; in test [4], 0.82 nM; in test [3] it was 0.86 nM.

B3: Human ephrin-B1 N-terminal extracellular domain (residues 29–167) (domain or fragment)
chain: AKNLEPVSWSSLNPKFLSGKGLVIYPKIGDKLDIICPRAEAGRPYEYYKLYLVRPEQAAACSTVLDPNVLVTCNRPEQEIRFTIKFQEFSPNYMGLEFKKHHDYYITSTSNGSLEGLENREGGVCRTRTMKIIMKVGQD
modifications: high-mannose N-linked glycans (expression in the presence of kifunensine)
notes: also called extracellular β-barrel domain of human ephrin-B1; ephrin-B1 ectodomain
On to B3, for which the “stoichiometry N” value in test [5] was found to be 1.

The Kd is the equilibrium constant for the complex coming apart. Read a high Kd as weaker binding. One may read the stoichiometry N as the number of molecules, sites or subunits per partner or assembly.

The values are drawn from PMC6925387 (Life Science Alliance, 2019).
